{"source": "patent US20090155236A1", "about": "“Peptide sequence for modulation of delta protein kinase c” (NATIONAL INSTITUES OF HEALTH (NIH), U.S. DEPT OF HEALTH AND …, priority 2004, published 2009)", "key": {"[1]": {"target": "T1, delta PKC-annexin V complex (Cricetulus griseus, UniProt A0A8C2N0P5+G3I5A4)", "T1 construct": "endogenous in cells; host or cells: CHO cells", "T1 sequence (A0A8C2N0P5 1-676)": "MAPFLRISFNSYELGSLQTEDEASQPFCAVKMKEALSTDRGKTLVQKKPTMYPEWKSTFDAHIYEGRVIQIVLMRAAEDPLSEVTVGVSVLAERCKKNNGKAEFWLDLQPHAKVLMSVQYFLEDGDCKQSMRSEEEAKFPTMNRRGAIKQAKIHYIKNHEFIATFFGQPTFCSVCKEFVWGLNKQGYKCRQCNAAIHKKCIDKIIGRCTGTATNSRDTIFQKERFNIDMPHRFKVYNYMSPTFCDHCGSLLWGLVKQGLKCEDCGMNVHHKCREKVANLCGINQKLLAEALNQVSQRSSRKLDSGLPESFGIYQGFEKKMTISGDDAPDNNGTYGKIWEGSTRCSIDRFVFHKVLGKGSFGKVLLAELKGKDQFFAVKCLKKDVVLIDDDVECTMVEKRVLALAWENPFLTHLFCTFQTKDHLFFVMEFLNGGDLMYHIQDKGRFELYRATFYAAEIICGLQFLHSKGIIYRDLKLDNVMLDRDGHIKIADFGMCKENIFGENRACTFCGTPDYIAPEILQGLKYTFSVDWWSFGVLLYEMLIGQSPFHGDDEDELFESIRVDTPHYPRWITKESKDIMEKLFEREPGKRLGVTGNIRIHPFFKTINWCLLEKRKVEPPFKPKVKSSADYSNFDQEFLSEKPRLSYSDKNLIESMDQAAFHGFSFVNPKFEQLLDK", "T1 sequence (G3I5A4 1-321)": "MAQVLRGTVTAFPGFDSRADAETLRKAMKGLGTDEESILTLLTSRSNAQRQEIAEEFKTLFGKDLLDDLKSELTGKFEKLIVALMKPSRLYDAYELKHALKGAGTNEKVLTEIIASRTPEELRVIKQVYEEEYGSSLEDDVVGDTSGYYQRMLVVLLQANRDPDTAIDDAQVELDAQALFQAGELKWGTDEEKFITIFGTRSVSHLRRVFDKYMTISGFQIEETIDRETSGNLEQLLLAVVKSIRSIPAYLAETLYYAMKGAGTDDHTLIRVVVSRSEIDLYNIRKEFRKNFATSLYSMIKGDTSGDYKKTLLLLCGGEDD", "experiment": "Dissociation of delta PKC-annexin V complex in CHO cells", "format": "cell-based", "settings": "CHO cells pretreated with the agent, then 10 nM PMA, FIG. 7", "protocol": "To determine the requirements for complex disassociation and subsequent translocation, PMA-induced formation of the delta PKC-annexin V complex was conducted under energetically limiting conditions caused by ATP depletion using 2-deoxyglucose (Kondo, T. et al., J. Lab. Clin. Med., 94:617-23 (1979)), and with cytoskeletal perturbations by pretreatment with actin […] agent cytochalasin D or microtubule-destabilizing agent nocodazole.\nCHO cells were pretreated with one of the following: (1) 2-deoxyglucose (20 mM) for 4 hours in a glucose-free buffer; (2) nocodazole (10 μM) for 2 hours; or (3) cytochalasin D (2 μM) for 1 hour. The cells were then treated with phorbol myristate acetate (PMA; 10 nM) for times of between 30 seconds to 5 minutes. After the lapsed time, the cells were washed with cold PBS, and homogenized on ice with trituration in homogenization buffer (20 mM Tris pH 7.4, 2 mM EDTA, 10 mM EGTA, 0.25M sucrose, 12 mM β-mercaptoethanol, and protease inhibitor cocktail (Sigma), 0.1% formaldehyde. After 30 min at 4° C., the lysates were quenched with 0.14M glycine for 20 min at 4° C., and samples spun at 14K rpm at 4° C. The supernatant was incubated with 1 μg anti-delta PKC antibody (Santa Cruz Biotechnology, Inc., Santa Cruz, Calif.) for 1 hour, then with proteinG beads (Invitrogen Corporation) for 3 hours at 4° C. The beads where then washed with wash buffer (20 mM Tris pH 7.5, 2 mM EDTA, 100 mM NaCl, 12 mM β-mercaptoethanol, 0.1% Triton), and separated on 7.5% SDS-PAGE, transferred to nitrocellulose, and probed with anti-annexin V (Santa Cruz Biotechnology, Inc., Santa Cruz, Calif.), followed by visualization by ECL Western blotting."}, "[2]": {"target": "T2, annexin V and delta PKC interaction (Homo sapiens, UniProt Q05655)", "T2 construct": "endogenous in cells; host or cells: cardiomyocytes", "T2 sequence (Q05655 whole entry)": "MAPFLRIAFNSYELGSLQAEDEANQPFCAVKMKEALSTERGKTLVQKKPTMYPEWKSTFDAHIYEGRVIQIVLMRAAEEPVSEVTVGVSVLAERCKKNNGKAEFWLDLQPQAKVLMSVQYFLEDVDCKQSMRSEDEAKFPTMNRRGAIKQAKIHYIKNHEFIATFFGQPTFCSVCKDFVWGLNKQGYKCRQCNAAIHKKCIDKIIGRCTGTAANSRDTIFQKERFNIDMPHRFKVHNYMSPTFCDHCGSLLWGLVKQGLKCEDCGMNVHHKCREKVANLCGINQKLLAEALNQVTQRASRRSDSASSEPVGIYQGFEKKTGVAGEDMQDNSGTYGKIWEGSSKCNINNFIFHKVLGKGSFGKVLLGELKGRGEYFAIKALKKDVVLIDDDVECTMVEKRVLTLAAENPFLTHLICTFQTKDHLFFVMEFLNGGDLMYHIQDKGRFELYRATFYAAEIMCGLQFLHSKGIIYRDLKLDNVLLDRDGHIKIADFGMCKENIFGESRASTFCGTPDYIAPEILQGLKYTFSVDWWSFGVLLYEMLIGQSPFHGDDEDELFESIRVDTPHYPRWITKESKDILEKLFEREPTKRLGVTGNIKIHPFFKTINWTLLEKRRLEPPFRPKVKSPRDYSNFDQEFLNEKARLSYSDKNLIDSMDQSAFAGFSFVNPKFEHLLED", "experiment": "Cross-linking immuno-precipitation of delta PKC probed with anti-annexin V in cardiac myocytes", "format": "cell-based", "protocol": "Example 4 describes a study where cardiac myocytes were stimulated with a selected agent and then immuno-precipitated with anti-delta PKC after cross-linking. The cell lysates were then probed with anti-annexin V and visualized with ECL Western blotting. […] The stimulation agent was applied to the cells for times of between 30 seconds to 20 minutes, prior to lysing.\nCardiomyocytes were treated with phorbol 12-myristate 13-acetate (PMA; 10 nM), hydrogen peroxide (H2O2; 5 mM), JTV-519, or delta V1-1 peptide (1 μM) and JTV-519 (1 μM), for times of between 30 seconds to 5 minutes. After the lapsed time, the cells were washed with cold PBS, and homogenized on ice with trituration in homogenization buffer (20 mM Tris pH 7.4, 2 mM EDTA, 10 mM EGTA, 0.25M sucrose, 12 mM O-mercaptoethanol, and protease inhibitor cocktail (Sigma), 0.1% formaldehyde. After 30 min at 4° C., the lysates were quenched with 0.14M glycine for 20 min at 4° C., and samples spun at 14K rpm at 4° C. The supernatant was incubated with 1 μg anti-delta PKC antibody (Santa Cruz Biotechnology, Inc., Santa Cruz, Calif.) for 1 hour, then with proteinG beads (Invitrogen Corporation) for 3 hours at 4° C. The beads where then washed with wash buffer (20 mM Tris pH 7.5, 2 mM EDTA, 100 mM NaCl, 12 mM β-mercaptoethanol, 0.1% Triton), and separated on 7.5% SDS-PAGE, transferred to nitrocellulose, and probed with anti-annexin V (Santa Cruz Biotechnology, Inc., Santa Cruz, Calif.), followed by visualization by ECL Western blotting."}, "[3]": {"target": "T3, delta PKC/annexin V interaction (Cricetulus griseus, UniProt A0A8C2N0P5)", "T3 construct": "endogenous in cells; host or cells: CHO cells", "T3 sequence (A0A8C2N0P5 1-676)": "as the sequence (A0A8C2N0P5 1-676) above", "T3 sequence (G3I5A4 1-321 partner)": "as the sequence (G3I5A4 1-321) above", "experiment": "Cross-linking co-immunoprecipitation of annexin V and delta PKC in CHO cells", "format": "cell-based", "protocol": "A similar study was conducted to further evaluate the in vitro, intracellular interactions of delta PKC and annexin V. Cellular interactions of delta PKC/annexin V interaction in CHO cells were stabilized with a cross-linking agent, after stimulation with 10 nM PMA. The complexes formed with delta PKC were then immuno-precipitated and tested for the presence of annexin V. The SDS-PAGE gel is shown in FIG. 6A and a corresponding graph quantifying percent association of annexin V and delta PKC as a function of time is shown in FIG. 6B. […] The interaction is relatively short-lived, and the proteins disassociated after 1 minute of stimulation.\nThe effect of JTV-519, an activator of delta PKC, on the association of annexin V and delta PKC was also evaluated in this study. Cells were treated with JTV-519, and the association of annexin V and delta PKC was examined using the co-immunoprecipitation procedure described above. […] PMA caused the disassociation of the JTV-induced complex at 30 seconds, the time of maximal PMA-induced association. […] Whereas the cytosolic fraction of the cells contained a steady low level of the complex, the majority of the complex was found in the particulate fraction of the cells, and disappearance from the particulate fraction followed the same time-course as observed in whole cell lysates (compare FIG. 6D bottom panel with FIG. 6B)."}, "[4]": {"system": "isolated rat hearts", "experiment": "Ex vivo ischemia/reperfusion in isolated rat hearts", "settings": "administered after ischemia during the initial 10 minutes of reperfusion", "protocol": "The physiologic impact of disruption of the delta PKC-annexin V complex was evaluated in an ex vivo ischemia/reperfusion study using the annexin V peptide, TAT-AnxV, and its mutant, TAT-AnxV(R→E). As described in Example 7, isolated rat hearts were treated with TAT-AnxV or TAT-AnxV(R→E) for 10 minutes prior to induction of an ischemic episode. The ischemic episode lasted for 30 minutes, at which time flow to the heart was returned for 60 minutes (reperfusion). After the reperfusion period, cardiac effluent was collected and analyzed for creatine phosphokinase (CPK). The hearts were stained and visually inspected for live and dead tissue. Infarct size was measured by taking the average of the dead (white) tissue on both sides of the tissue slice.\nA similar study was conducted, except rather than pretreating the isolated hearts with the annexin V peptide, the peptide was administered after the ischemic event and during the initial 10 minutes of the reperfusion period. Hearts were similarly treated with the mutant peptide, TAT-AnxV(R→E).\nRats were anesthetized and their hearts were rapidly removed and cannulated via the aorta for retrograde perfusion (Colbert, M. et al., J. Clin. Invest., 100:1958 (1997)). The hearts were left untreated, or were pretreated with the annexin V peptide, conjugated to TAT, (TAT-AnxV, SEQ ID NO:29) or with its mutant, TAT-AnxV(R→E) (SEQ ID NO:31), for 10 minutes prior to a 30 minutes of ischemia. Ischemia was induced by interrupting flow for 30 minutes and then reestablishing flow for 60 minutes (reperfusion). Cardiac effluent was collected for 15 minutes after reperfusion and assayed for creatine phosphokinase (CPK) using a Sigma kit. Hearts were stained with 2,3,5-triphenyltetrazolium chloride ([…]) to visualize live tissue (red) and dead tissue (white), and infarct size was measured by taking the average of the white area on both sides of the tissue slice (n=3, p<0.05). Results are shown in FIGS. 9A-9B and FIGS. 10A-10B."}, "[5]": {"target": "delta PKC (Rattus norvegicus, UniProt P09215)", "sequence (P09215 with tags, fused parts or gaps with the stated changes limits assumed)": "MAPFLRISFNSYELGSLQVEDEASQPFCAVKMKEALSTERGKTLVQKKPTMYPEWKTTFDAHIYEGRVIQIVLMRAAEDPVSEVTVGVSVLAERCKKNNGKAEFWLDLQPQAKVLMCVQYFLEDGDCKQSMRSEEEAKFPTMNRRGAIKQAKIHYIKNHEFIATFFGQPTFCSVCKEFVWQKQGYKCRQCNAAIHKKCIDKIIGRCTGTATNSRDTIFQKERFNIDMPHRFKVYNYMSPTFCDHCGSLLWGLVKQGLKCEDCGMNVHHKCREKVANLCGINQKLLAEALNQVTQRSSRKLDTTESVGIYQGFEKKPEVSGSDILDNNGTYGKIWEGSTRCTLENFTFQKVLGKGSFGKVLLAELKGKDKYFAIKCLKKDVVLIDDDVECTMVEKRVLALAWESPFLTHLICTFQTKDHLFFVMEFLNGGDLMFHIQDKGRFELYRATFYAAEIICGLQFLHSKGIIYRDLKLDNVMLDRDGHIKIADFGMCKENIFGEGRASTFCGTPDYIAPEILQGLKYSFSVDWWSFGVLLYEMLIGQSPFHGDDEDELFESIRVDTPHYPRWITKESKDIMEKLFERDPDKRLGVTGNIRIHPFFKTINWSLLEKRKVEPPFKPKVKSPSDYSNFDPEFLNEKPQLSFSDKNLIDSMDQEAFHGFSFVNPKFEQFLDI", "experiment": "ELISA of annexin V peptide variants fused to alkaline phosphatase on immobilized delta PKC", "format": "binding", "design": "key to Binding: +++: Relative binding is shown in Table 1 by “+” and “−” indicators; ++: Relative binding is shown in Table 1 by “+” and “−” indicators; Relative binding is shown in Table 1 by “+” and “−” indicators; Relative binding is shown in Table 1 by “+” and “−” indicators; −−−: Relative binding is shown in Table 1 by “+” and “−” indicators", "settings": "Table 1; for Binding: relative binding of peptide-alkaline phosphatase fusion to immobilized delta PKC", "protocol": "Binding of the annexin V peptide (SEQ ID NO: 1) and of variants of the peptide to delta PKC was examined using an ELISA protocol, detailed in Example 6. Delta PKC (SEQ ID NO:3) was immobilized in the wells of a microtiter plate and then incubated with the annexin V peptide conjugated to alkaline phosphatase or with variants of the annexin V peptide, also conjugated to alkaline phosphatase.\nRecombinant delta PKC protein (SEQ ID NO:3) was bound to a Falcon plate for 1 hour at room temperature in carbonate buffer pH 9.6. A 1:10-1:100 dilution of PKC enzyme from glycerol stock or 100 μg was prepared. β-mercaptoethanol at 1 μL/mL was added into the PKC. Each well contained approximately 100 μL of PKC; some wells without PKC were present to correct for non-specific binding.\nNext, all wells were blocked with 200 μL of super block or 0.5% milk in carbonate buffer. Blocking was done twice, for 5 minutes each time.\nWithout washing the wells, 100 μL of a peptide fused to alkaline phosphatase protein (i.e., peptide-alkaline phosphatase fusion) was added to the wells, and incubated for 30 minutes at 37° C. The wells were then washed three times, for 2 minutes each time, with TBS/Tween (0.1%). The wells were allowed to develop overnight before reading absorbance at 405 nm."}, "[6]": {"settings": "cardiac myocytes stimulated with the agent, FIG. 5"}}}
{"molecule": "O=CC[C@@H](O)[C@H](O)[C@H](O)CO", "note": "[2-deoxyglucose]", "values": [{"measurement": "disassociation of the delta PKC-annexin V complex", "setting": "[1]", "result": "substantial levels of the complex even after 5 minutes"}]}
{"molecule": "OO", "note": "[H2O2, hydrogen peroxide]", "values": [{"measurement": "interaction of annexin V and delta PKC", "setting": "[2]; [6]", "result": "stimulated delta PKC to a greater extent than exposure for 2 minutes"}]}
{"molecule": "CCCCCCCCCCCCCC(=O)O[C@@H]1[C@@H](C)[C@@]2(O)[C@@H](C=C(CO)C[C@]3(O)C(=O)C(C)=C[C@@H]23)[C@@H]2C(C)(C)[C@]12OC(C)=O", "note": "[PMA, phorbol 12-myristate 13-acetate]", "values": [{"measurement": "interaction of annexin V and delta PKC", "setting": "[2]; [6]", "result": "Annexin V interacts with delta PKC early after stimulation"}, {"measurement": "time of stimulation after which annexin V and delta PKC disassociated", "setting": "[3]; 10 nM PMA, FIGS. 6A-6B", "result": 1, "unit": "min"}, {"measurement": "time to induction of annexin V and delta PKC interaction", "setting": "[3]; 10 nM PMA, FIGS. 6A-6B", "result": "≤ 30", "unit": "s"}, {"measurement": "cellular localization of the delta PKC-annexin V complex", "setting": "[3]; soluble versus particulate fraction, FIG. 6D", "result": "maximum complex accumulation in the particulate fraction"}]}
{"molecule": "C=C1[C@@H](C)[C@H]2[C@H](Cc3ccccc3)NC(=O)[C@]23[C@H](OC(C)=O)/C=C/[C@@](C)(O)C(=O)[C@@H](C)C/C=C/[C@H]3[C@@H]1O", "note": "[cytochalasin D]", "values": [{"measurement": "disassociation of the delta PKC-annexin V complex", "setting": "[1]", "result": "did not affect the profile of disassociation"}]}
{"molecule": "COC(=O)Nc1nc2ccc(C(=O)c3cccs3)cc2[nH]1", "note": "[nocodazole]", "values": [{"measurement": "disassociation of the delta PKC-annexin V complex", "setting": "[1]", "result": "substantial levels of the complex even after 5 minutes"}]}
{"molecule": "LQANRDPD (listed as Homo sapiens) [SEQ ID NO:1, peptide from annexin V, residues 157-164]", "values": [{"measurement": "infarct size", "setting": "[4]; FIG. 10A", "result": "no cardioprotective effect was observed"}, {"measurement": "creatine phosphokinase (CPK) released", "setting": "[4]; FIG. 10B", "result": "does not confer a cardioprotective effect"}]}
{"molecule": "MAAAEDP (variant of SEQ ID NO1) [SEQ ID NO:17]", "values": [{"measurement": "Binding", "setting": "[5]", "result": "−"}]}
{"molecule": "MEAAEDP (variant of SEQ ID NO1) [SEQ ID NO:15]", "values": [{"measurement": "binding to delta PKC", "setting": "[5]", "result": "bind to delta PKC"}, {"measurement": "Binding", "setting": "[5]", "result": "+"}]}
{"molecule": "MQAARDP (variant of SEQ ID NO1) [SEQ ID NO:12]", "values": [{"measurement": "binding to delta PKC", "setting": "[5]", "result": "bind to delta PKC"}, {"measurement": "Binding", "setting": "[5]", "result": "+++"}]}
{"molecule": "MRAAADP (variant of SEQ ID NO1) [SEQ ID NO:16]", "values": [{"measurement": "Binding", "setting": "[5]", "result": "−−−"}]}
{"molecule": "MRAAEDP (variant of SEQ ID NO1) [SEQ ID NO:18]", "values": [{"measurement": "Binding", "setting": "[5]", "result": "++"}]}
{"molecule": "MRAAENP (variant of SEQ ID NO1) [SEQ ID NO:13]", "values": [{"measurement": "binding to delta PKC", "setting": "[5]", "result": "bind to delta PKC"}, {"measurement": "Binding", "setting": "[5]", "result": "+++"}]}
{"molecule": "MRAAQDP (variant of SEQ ID NO1) [SEQ ID NO:14]", "values": [{"measurement": "binding to delta PKC", "setting": "[5]", "result": "bind to delta PKC"}, {"measurement": "Binding", "setting": "[5]", "result": "++"}]}
{"molecule": "delta V1-1 peptide: amino acid sequence from the first variable region of delta PKC (residues 8-17); peptide inhibitor of delta PKC (SFNSYELGS; listed as Rattus norvegicus)", "values": [{"measurement": "interaction of annexin V and delta PKC", "setting": "[2]; cardiac myocytes pre-treated with the peptide for 20 minutes, then JTV-519 for 20 minutes, FIG. 5 Lane 10", "result": "blocked"}]}
